From patent publication US20200216536A1 (published 2020)
Where “and” joins values, the source holds several entries; their conditions need not be identical. Identical values can stand only once.

Molecular target: T1, canine FcRn (UniProtKB-E2ROL6 [FcRn] and UniProtKB-E2RN10 [canine beta-2-microglobulin]) (canine)
T1 construct: Soluble analyte injected in SPR
Experiment: SPR Biacore 8K, pH 5.5, Fc captured on BSA via SASA tag, FcRn 400 nM

Binder | Kd | kon | koff
canine IgG.B Fc (CH2-CH3) variant M428A (Fc fusion) APEMLGGPSVFIFPPKPKDTLLIARTPEVTCVVVDLDPEDPEVQISWFVDGKQMQTAKTQPREEQFNGTYRVVSVLPIGHQDWLKGKQFTCKVNNKALPSPIERTISKARGQAHQPSVYVLPPSREELSKNTVSLTCLIKDFFPPDIDVEWQSNGQQEPESKYRTTPPQLDEDGSYFLYSKLSVDKSRWQRGDTFICAVAHEALHNHYTQESLSHSPGK | 723 nM and 1670 nM | 234000 M⁻¹ s⁻¹ and 318000 M⁻¹ s⁻¹ | 
canine IgG.B Fc (CH2-CH3) variant D378A (Fc fusion) APEMLGGPSVFIFPPKPKDTLLIARTPEVTCVVVDLDPEDPEVQISWFVDGKQMQTAKTQPREEQFNGTYRVVSVLPIGHQDWLKGKQFTCKVNNKALPSPIERTISKARGQAHQPSVYVLPPSREELSKNTVSLTCLIKDFFPPDIAVEWQSNGQQEPESKYRTTPPQLDEDGSYFLYSKLSVDKSRWQRGDTFICAVMHEALHNHYTQESLSHSPGK | 673 nM and 592 nM | 272000 M⁻¹ s⁻¹ and 306000 M⁻¹ s⁻¹ | 0.183 s⁻¹ and 0.181 s⁻¹
canine IgG.B Fc (CH2-CH3) variant P307A (Fc fusion) APEMLGGPSVFIFPPKPKDTLLIARTPEVTCVVVDLDPEDPEVQISWFVDGKQMQTAKTQPREEQFNGTYRVVSVLAIGHQDWLKGKQFTCKVNNKALPSPIERTISKARGQAHQPSVYVLPPSREELSKNTVSLTCLIKDFFPPDIDVEWQSNGQQEPESKYRTTPPQLDEDGSYFLYSKLSVDKSRWQRGDTFICAVMHEALHNHYTQESLSHSPGK | 325 nM and 338 nM |  | 
canine IgG.B Fc (CH2-CH3) variant A254S (Fc fusion) APEMLGGPSVFIFPPKPKDTLLISRTPEVTCVVVDLDPEDPEVQISWFVDGKQMQTAKTQPREEQFNGTYRVVSVLPIGHQDWLKGKQFTCKVNNKALPSPIERTISKARGQAHQPSVYVLPPSREELSKNTVSLTCLIKDFFPPDIDVEWQSNGQQEPESKYRTTPPQLDEDGSYFLYSKLSVDKSRWQRGDTFICAVMHEALHNHYTQESLSHSPGK | 340 nM and 317 nM |  | 
canine IgG.B Fc (CH2-CH3) variant Q285A (Fc fusion) APEMLGGPSVFIFPPKPKDTLLIARTPEVTCVVVDLDPEDPEVQISWFVDGKQMATAKTQPREEQFNGTYRVVSVLPIGHQDWLKGKQFTCKVNNKALPSPIERTISKARGQAHQPSVYVLPPSREELSKNTVSLTCLIKDFFPPDIDVEWQSNGQQEPESKYRTTPPQLDEDGSYFLYSKLSVDKSRWQRGDTFICAVMHEALHNHYTQESLSHSPGK | 341 nM and 257 nM |  | 
canine IgG.B Fc (CH2-CH3) variant I308A (Fc fusion) APEMLGGPSVFIFPPKPKDTLLIARTPEVTCVVVDLDPEDPEVQISWFVDGKQMQTAKTQPREEQFNGTYRVVSVLPAGHQDWLKGKQFTCKVNNKALPSPIERTISKARGQAHQPSVYVLPPSREELSKNTVSLTCLIKDFFPPDIDVEWQSNGQQEPESKYRTTPPQLDEDGSYFLYSKLSVDKSRWQRGDTFICAVMHEALHNHYTQESLSHSPGK | 472 nM and 563 nM | 357000 M⁻¹ s⁻¹ and 345000 M⁻¹ s⁻¹ | 0.169 s⁻¹ and 0.194 s⁻¹
canine IgG.B Fc (CH2-CH3) variant G309A (Fc fusion) APEMLGGPSVFIFPPKPKDTLLIARTPEVTCVVVDLDPEDPEVQISWFVDGKQMQTAKTQPREEQFNGTYRVVSVLPIAHQDWLKGKQFTCKVNNKALPSPIERTISKARGQAHQPSVYVLPPSREELSKNTVSLTCLIKDFFPPDIDVEWQSNGQQEPESKYRTTPPQLDEDGSYFLYSKLSVDKSRWQRGDTFICAVMHEALHNHYTQESLSHSPGK | 245 nM and 294 nM |  | 
canine IgG.B Fc (CH2-CH3) variant T286A (Fc fusion) APEMLGGPSVFIFPPKPKDTLLIARTPEVTCVVVDLDPEDPEVQISWFVDGKQMQAAKTQPREEQFNGTYRVVSVLPIGHQDWLKGKQFTCKVNNKALPSPIERTISKARGQAHQPSVYVLPPSREELSKNTVSLTCLIKDFFPPDIDVEWQSNGQQEPESKYRTTPPQLDEDGSYFLYSKLSVDKSRWQRGDTFICAVMHEALHNHYTQESLSHSPGK | 464 nM and 569 nM | 422000 M⁻¹ s⁻¹ and 533000 M⁻¹ s⁻¹ | 0.196 s⁻¹ and 0.304 s⁻¹
canine IgG.B Fc (CH2-CH3) variant T250A (Fc fusion) APEMLGGPSVFIFPPKPKDALLIARTPEVTCVVVDLDPEDPEVQISWFVDGKQMQTAKTQPREEQFNGTYRVVSVLPIGHQDWLKGKQFTCKVNNKALPSPIERTISKARGQAHQPSVYVLPPSREELSKNTVSLTCLIKDFFPPDIDVEWQSNGQQEPESKYRTTPPQLDEDGSYFLYSKLSVDKSRWQRGDTFICAVMHEALHNHYTQESLSHSPGK | 335 nM and 328 nM |  | 
canine IgG.B Fc (CH2-CH3) variant T256A (Fc fusion) APEMLGGPSVFIFPPKPKDTLLIARAPEVTCVVVDLDPEDPEVQISWFVDGKQMQTAKTQPREEQFNGTYRVVSVLPIGHQDWLKGKQFTCKVNNKALPSPIERTISKARGQAHQPSVYVLPPSREELSKNTVSLTCLIKDFFPPDIDVEWQSNGQQEPESKYRTTPPQLDEDGSYFLYSKLSVDKSRWQRGDTFICAVMHEALHNHYTQESLSHSPGK | 447 nM and 298 nM |  | 
canine IgG.B Fc (CH2-CH3) variant Q311A (Fc fusion) APEMLGGPSVFIFPPKPKDTLLIARTPEVTCVVVDLDPEDPEVQISWFVDGKQMQTAKTQPREEQFNGTYRVVSVLPIGHADWLKGKQFTCKVNNKALPSPIERTISKARGQAHQPSVYVLPPSREELSKNTVSLTCLIKDFFPPDIDVEWQSNGQQEPESKYRTTPPQLDEDGSYFLYSKLSVDKSRWQRGDTFICAVMHEALHNHYTQESLSHSPGK | 368 nM and 370 nM | 2.43e+06 M⁻¹ s⁻¹ and 1.34e+06 M⁻¹ s⁻¹ | 0.894 s⁻¹ and 0.496 s⁻¹
canine IgG.B Fc (CH2-CH3) variant K315A (Fc fusion) APEMLGGPSVFIFPPKPKDTLLIARTPEVTCVVVDLDPEDPEVQISWFVDGKQMQTAKTQPREEQFNGTYRVVSVLPIGHQDWLAGKQFTCKVNNKALPSPIERTISKARGQAHQPSVYVLPPSREELSKNTVSLTCLIKDFFPPDIDVEWQSNGQQEPESKYRTTPPQLDEDGSYFLYSKLSVDKSRWQRGDTFICAVMHEALHNHYTQESLSHSPGK | 422 nM and 548 nM |  | 
canine IgG.B Fc (CH2-CH3) variant L252A (Fc fusion) APEMLGGPSVFIFPPKPKDTLAIARTPEVTCVVVDLDPEDPEVQISWFVDGKQMQTAKTQPREEQFNGTYRVVSVLPIGHQDWLKGKQFTCKVNNKALPSPIERTISKARGQAHQPSVYVLPPSREELSKNTVSLTCLIKDFFPPDIDVEWQSNGQQEPESKYRTTPPQLDEDGSYFLYSKLSVDKSRWQRGDTFICAVMHEALHNHYTQESLSHSPGK | 292 nM and 240 nM |  | 
canine IgG.B Fc (CH2-CH3) variant Y436A (Fc fusion) APEMLGGPSVFIFPPKPKDTLLIARTPEVTCVVVDLDPEDPEVQISWFVDGKQMQTAKTQPREEQFNGTYRVVSVLPIGHQDWLKGKQFTCKVNNKALPSPIERTISKARGQAHQPSVYVLPPSREELSKNTVSLTCLIKDFFPPDIDVEWQSNGQQEPESKYRTTPPQLDEDGSYFLYSKLSVDKSRWQRGDTFICAVMHEALHNHATQESLSHSPGK | 393 nM and 876 nM |  | 0.407 s⁻¹ and 0.213 s⁻¹
canine IgG.B Fc (CH2-CH3) variant H433A (Fc fusion) APEMLGGPSVFIFPPKPKDTLLIARTPEVTCVVVDLDPEDPEVQISWFVDGKQMQTAKTQPREEQFNGTYRVVSVLPIGHQDWLKGKQFTCKVNNKALPSPIERTISKARGQAHQPSVYVLPPSREELSKNTVSLTCLIKDFFPPDIDVEWQSNGQQEPESKYRTTPPQLDEDGSYFLYSKLSVDKSRWQRGDTFICAVMHEALANHYTQESLSHSPGK | 266 nM and 359 nM |  | 0.229 s⁻¹ and 0.0997 s⁻¹
canine IgG.B Fc (CH2-CH3) variant N434A (Fc fusion) APEMLGGPSVFIFPPKPKDTLLIARTPEVTCVVVDLDPEDPEVQISWFVDGKQMQTAKTQPREEQFNGTYRVVSVLPIGHQDWLKGKQFTCKVNNKALPSPIERTISKARGQAHQPSVYVLPPSREELSKNTVSLTCLIKDFFPPDIDVEWQSNGQQEPESKYRTTPPQLDEDGSYFLYSKLSVDKSRWQRGDTFICAVMHEALHAHYTQESLSHSPGK | 457 nM and 494 nM | 518000 M⁻¹ s⁻¹ and 966000 M⁻¹ s⁻¹ | 0.237 s⁻¹ and 0.477 s⁻¹

Molecular target: T1, canine FcRn (UniProtKB-E2ROL6 [FcRn] …)
Experiment: SPR Biacore 8K, pH 5.5, Fc captured on BSA via SASA tag, FcRn 200 nM

Binder | Kd | koff | kon
canine IgG.B Fc (CH2-CH3) variant N434S (Fc fusion) APEMLGGPSVFIFPPKPKDTLLIARTPEVTCVVVDLDPEDPEVQISWFVDGKQMQTAKTQPREEQFNGTYRVVSVLPIGHQDWLKGKQFTCKVNNKALPSPIERTISKARGQAHQPSVYVLPPSREELSKNTVSLTCLIKDFFPPDIDVEWQSNGQQEPESKYRTTPPQLDEDGSYFLYSKLSVDKSRWQRGDTFICAVMHEALHSHYTQESLSHSPGK | 924 nM and 1050 nM | 0.207 s⁻¹ and 0.209 s⁻¹ | 225000 M⁻¹ s⁻¹ and 199000 M⁻¹ s⁻¹
canine IgG.B Fc (CH2-CH3) variant N434Y (Fc fusion) APEMLGGPSVFIFPPKPKDTLLIARTPEVTCVVVDLDPEDPEVQISWFVDGKQMQTAKTQPREEQFNGTYRVVSVLPIGHQDWLKGKQFTCKVNNKALPSPIERTISKARGQAHQPSVYVLPPSREELSKNTVSLTCLIKDFFPPDIDVEWQSNGQQEPESKYRTTPPQLDEDGSYFLYSKLSVDKSRWQRGDTFICAVMHEALHYHYTQESLSHSPGK | 15.9 nM | 0.00968 s⁻¹ | 607000 M⁻¹ s⁻¹
canine IgG.B Fc (CH2-CH3) variant N434A (Fc fusion) APEMLGGPSVFIFPPKPKDTLLIARTPEVTCVVVDLDPEDPEVQISWFVDGKQMQTAKTQPREEQFNGTYRVVSVLPIGHQDWLKGKQFTCKVNNKALPSPIERTISKARGQAHQPSVYVLPPSREELSKNTVSLTCLIKDFFPPDIDVEWQSNGQQEPESKYRTTPPQLDEDGSYFLYSKLSVDKSRWQRGDTFICAVMHEALHAHYTQESLSHSPGK | 573 nM and 629 nM | 0.156 s⁻¹ and 0.164 s⁻¹ | 272000 M⁻¹ s⁻¹ and 261000 M⁻¹ s⁻¹

Molecular target: T1, canine FcRn (UniProtKB-E2ROL6 [FcRn] …)
Experiment: SPR Biacore 8K, pH 5.5, Fc captured on BSA via SASA tag, FcRn 100-800 nM

Binder | Kd | koff | kon
canine IgG.B Fc (CH2-CH3) variant N434H (Fc fusion) APEMLGGPSVFIFPPKPKDTLLIARTPEVTCVVVDLDPEDPEVQISWFVDGKQMQTAKTQPREEQFNGTYRVVSVLPIGHQDWLKGKQFTCKVNNKALPSPIERTISKARGQAHQPSVYVLPPSREELSKNTVSLTCLIKDFFPPDIDVEWQSNGQQEPESKYRTTPPQLDEDGSYFLYSKLSVDKSRWQRGDTFICAVMHEALHHHYTQESLSHSPGK | 247 nM | 0.102 s⁻¹ | 411000 M⁻¹ s⁻¹
canine IgG.B Fc (CH2-CH3) YTE variant (L252Y/A254T/T256E) (Fc fusion) APEMLGGPSVFIFPPKPKDTLYITREPEVTCVVVDLDPEDPEVQISWFVDGKQMQTAKTQPREEQFNGTYRVVSVLPIGHQDWLKGKQFTCKVNNKALPSPIERTISKARGQAHQPSVYVLPPSREELSKNTVSLTCLIKDFFPPDIDVEWQSNGQQEPESKYRTTPPQLDEDGSYFLYSKLSVDKSRWQRGDTFICAVMHEALHNHYTQESLSHSPGK | 184 nM | 0.046 s⁻¹ | 250000 M⁻¹ s⁻¹
canine IgG.B Fc (CH2-CH3) variant N434Y (Fc fusion) APEMLGGPSVFIFPPKPKDTLLIARTPEVTCVVVDLDPEDPEVQISWFVDGKQMQTAKTQPREEQFNGTYRVVSVLPIGHQDWLKGKQFTCKVNNKALPSPIERTISKARGQAHQPSVYVLPPSREELSKNTVSLTCLIKDFFPPDIDVEWQSNGQQEPESKYRTTPPQLDEDGSYFLYSKLSVDKSRWQRGDTFICAVMHEALHYHYTQESLSHSPGK | 29.1 nM | 0.0151 s⁻¹ | 520000 M⁻¹ s⁻¹
